Target: T1, Arabidopsis thaliana 14-3-3 kappa (Arabidopsis thaliana), P48348
T1 chain: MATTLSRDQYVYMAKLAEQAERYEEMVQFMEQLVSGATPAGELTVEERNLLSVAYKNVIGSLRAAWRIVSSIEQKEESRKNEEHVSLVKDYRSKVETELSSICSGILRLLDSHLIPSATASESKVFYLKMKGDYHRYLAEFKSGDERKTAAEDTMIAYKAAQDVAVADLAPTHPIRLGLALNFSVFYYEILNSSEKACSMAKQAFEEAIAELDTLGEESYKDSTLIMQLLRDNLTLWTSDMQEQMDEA
Test: SEC-MALS
Details: remark: other sources report otherwise

stoichiometry N: 2
B1: Arabidopsis thaliana 14-3-3 kappa, P48348 1-248 (natural protein)
chain: T1 chain
